This note sets out measurements from patent publication US20240024475A1 (CURE GENETICS, published 2024).

The target in the assay is T1, recombinant human CD70 protein (Acrobiosystems: CDL-H82Q9) (human, UniProt P32970 39-193).
T1 construct: Bought from Acrobiosystems; The whole natural entry is named; also called human CD70His fusion protein; recombinant human CD70 antigen having a C-terminal human IgG Fc tag
T1 sequence (looked up): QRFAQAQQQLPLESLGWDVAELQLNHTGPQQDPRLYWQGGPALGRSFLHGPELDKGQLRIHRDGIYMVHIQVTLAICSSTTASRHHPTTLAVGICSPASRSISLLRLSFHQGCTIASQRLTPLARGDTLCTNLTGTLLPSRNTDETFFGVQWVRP
Put plainly: flow cytometry: CAR on CD70-knockout T cells stained with biotinylated human CD70 protein (100 µg/ml) and PE-Streptavidin. The method, then:
The expression of the CAR targeting CD70 prepared in example 5 in T cells in each group was detected by fluorescence antibody staining and flow cytometry. The specific steps were as follows: CAR-T cells targeting CD70 with lentivirus infection for 48 h, T cells without lentivirus infection and T-KO cells without lentivirus infection were respectively collected by centrifugation; biotinylated human CD70 protein (100 μg/ml) (Acrobiosystems: CDL-H82Q9) was added; and the mixture was incubated at 4° C. in the dark for 30 min, and then washed once with PBS after the incubation. After resuspending in an appropriate volume of PBS, a second antibody PE-Streptavidin (BD Biosciences: 554061) was added to the cells, and the mixture was incubated at 4° C. in the dark for 20 min, washed once with PBS and then resuspended in an appropriate volume of PBS. Finally, the expression efficiency of the CAR targeting CD70 on the surface of the T cells in which CD70 was knocked out was detected using a flow cytometer.
Background: A flow cytometer gives signals particle by particle.

B1: CD70KO-CAR-5B (receptor)
chimeric antigen receptor chain: QVQLVESGGGLVQAGGSLRLSCAASGFTFDDYAIGWFRQAPGKEPEGVSCFRSSDGNIYYSDSVRGRFTISSDNAKNTVYLQMNRLKPEDTAVYYCAAYSVLLRPWVLCEGSYDYWGQGTQVTVSSTTTPAPRPPTPAPTIASQPLSLRPEACRPAAGGAVHTRGLDFACDIYIWAPLAGTCGVLLLSLVITLYCKRGRKKLLYIFKQPFMRPVQTTQEEDGCSCRFPEEEEGGCELRVKFSRSADAPAYKQGQNQLYNELNLGRREEYDVLDKRRGRDPEMGGKPRRKNPQEGLYNELQKDKMAEAYSEIGMKGERRRGKGHDGLYQGLSTATKDTYDALHMQALPPR
notes: The sheet names the CD70-knockout T cells that carry CD70-CAR-5B; also called CD70-CAR-5B
For B1, the “POS (% of cells in the CD70-PE positive gate)” value came out at 57.8%.

B2: CD70KO-CAR-1E (receptor)
chimeric antigen receptor chain: EVQVVESGGGLVQAGGSLRLSCAASGFAFDDYAIGWFRQAPGKEQERVSCMSSSDGSTYYADSVKGRFTISSDNAKNTVYLQMNSLKPEDTAVYYCAAGVNYYREDGCPGALDYWGQGTQVTVSSTTTPAPRPPTPAPTIASQPLSLRPEACRPAAGGAVHTRGLDFACDIYIWAPLAGTCGVLLLSLVITLYCKRGRKKLLYIFKQPFMRPVQTTQEEDGCSCRFPEEEEGGCELRVKFSRSADAPAYKQGQNQLYNELNLGRREEYDVLDKRRGRDPEMGGKPRRKNPQEGLYNELQKDKMAEAYSEIGMKGERRRGKGHDGLYQGLSTATKDTYDALHMQALPPR
notes: The sheet names the CD70-knockout T cells that carry CD70-CAR-1E; also called CD70-CAR-1E
With B2, the “POS (% of cells in the CD70-PE positive gate)” value is 63.9%.

B3: CD70KO-CAR-7D (receptor)
chimeric antigen receptor chain: EVQLVESGGGLVQAGGSLRLSCAASGFTFDDYAIGWFRQAPGKEQEGVSCIRRSDGSTWYANSVKGRFTISNDNAKNTVYLQMNSLKPEDTAVYYCAVDRYGQSWHEGRGALDAWGQGTLVTVSSTTTPAPRPPTPAPTIASQPLSLRPEACRPAAGGAVHTRGLDFACDIYIWAPLAGTCGVLLLSLVITLYCKRGRKKLLYIFKQPFMRPVQTTQEEDGCSCRFPEEEEGGCELRVKFSRSADAPAYKQGQNQLYNELNLGRREEYDVLDKRRGRDPEMGGKPRRKNPQEGLYNELQKDKMAEAYSEIGMKGERRRGKGHDGLYQGLSTATKDTYDALHMQALPPR
notes: The sheet names the CD70-knockout T cells that carry CD70-CAR-7D; also called CD70-CAR-7D
With B3, the “POS (% of cells in the CD70-PE positive gate)” value was found to be 78.4%.

B4: CD70KO-CAR-3H (receptor)
chimeric antigen receptor chain: QLQLVESGGGLVQPGGSLRLSCAASGNILRFNAVGWYRQAPGKQRDLVAAMAGARTNYADSVEGRFTISGNNANNTVYLQMNSLKPEDTGVYYCGADRVYGPPYEYGGRGTQVTVLSTTTPAPRPPTPAPTIASQPLSLRPEACRPAAGGAVHTRGLDFACDIYIWAPLAGTCGVLLLSLVITLYCKRGRKKLLYIFKQPFMRPVQTTQEEDGCSCRFPEEEEGGCELRVKFSRSADAPAYKQGQNQLYNELNLGRREEYDVLDKRRGRDPEMGGKPRRKNPQEGLYNELQKDKMAEAYSEIGMKGERRRGKGHDGLYQGLSTATKDTYDALHMQALPPR
notes: The sheet names the CD70-knockout T cells that carry CD70-CAR-3H; also called CD70-CAR-3H
As to B4, the “POS (% of cells in the CD70-PE positive gate)” value is 70.8%.

B5: CD70KO-CAR-5A (receptor)
chimeric antigen receptor chain: EVQLVESGGGLVQAGGSLRLSCAASESIFNNYVMAWYRQPPGKQREAVAQISTDGSAYYQDRVKGRFTISRDNAKNLVNLQMSSLKPEDTAVYYCTAGLQYWGQGTQVTVSSTTTPAPRPPTPAPTIASQPLSLRPEACRPAAGGAVHTRGLDFACDIYIWAPLAGTCGVLLLSLVITLYCKRGRKKLLYIFKQPFMRPVQTTQEEDGCSCRFPEEEEGGCELRVKFSRSADAPAYKQGQNQLYNELNLGRREEYDVLDKRRGRDPEMGGKPRRKNPQEGLYNELQKDKMAEAYSEIGMKGERRRGKGHDGLYQGLSTATKDTYDALHMQALPPR
notes: The sheet names the CD70-knockout T cells that carry CD70-CAR-5A; also called CD70-CAR-5A
Regarding B5, the “POS (% of cells in the CD70-PE positive gate)” value was 74.9%.

B6: CD70KO-CAR-L2 (receptor)
chimeric antigen receptor chain: EVQLVESGGGLVQAGGSLRLSCAASGFTVDDYVIGWFRQAPGKEHEGVSCISSNDGSTWYADSVKGRFTISSDNAKNTMYLQMNSLKPEDTAVYYCAAKYAPYGLEYWEGGMDYWGKGTLVTVSSTTTPAPRPPTPAPTIASQPLSLRPEACRPAAGGAVHTRGLDFACDIYIWAPLAGTCGVLLLSLVITLYCKRGRKKLLYIFKQPFMRPVQTTQEEDGCSCRFPEEEEGGCELRVKFSRSADAPAYKQGQNQLYNELNLGRREEYDVLDKRRGRDPEMGGKPRRKNPQEGLYNELQKDKMAEAYSEIGMKGERRRGKGHDGLYQGLSTATKDTYDALHMQALPPR
notes: The sheet names the CD70-knockout T cells that carry CD70-CAR-L2; also called CD70-CAR-L2
B6: the “POS (% of cells in the CD70-PE positive gate)” value is 62.6%.

B7: CD70KO-CAR-1G (receptor)
chimeric antigen receptor chain: QLQLVESGGGLVQLGGSLTLSCTASGIIFNSDYVGWYRQAPGSDRELVALTSNMRTNYADSVEGRFTISRDNAKNTVYLQMNSLKPEDTAVYYCNVNRMTSYGPRDYWGQGTQVTVSSTTTPAPRPPTPAPTIASQPLSLRPEACRPAAGGAVHTRGLDFACDIYIWAPLAGTCGVLLLSLVITLYCKRGRKKLLYIFKQPFMRPVQTTQEEDGCSCRFPEEEEGGCELRVKFSRSADAPAYKQGQNQLYNELNLGRREEYDVLDKRRGRDPEMGGKPRRKNPQEGLYNELQKDKMAEAYSEIGMKGERRRGKGHDGLYQGLSTATKDTYDALHMQALPPR
notes: The sheet names the CD70-knockout T cells that carry CD70-CAR-1G; also called CD70-CAR-1G
On to B7, for which the “POS (% of cells in the CD70-PE positive gate)” value amounted to 57.5%.

B8: CD70KO-CAR-5H (receptor)
chimeric antigen receptor chain: EVQLVESGGGMVQAGGSLRLSCAAPGKIFSFYFMGWYRQAPGKQRELVALITGDGRTNYADSVEGRFTISRDNAKNTVYLQMNSLKPEDTAVYYCYADVFARAGRDEYWGQGTQVSVSSTTTPAPRPPTPAPTIASQPLSLRPEACRPAAGGAVHTRGLDFACDIYIWAPLAGTCGVLLLSLVITLYCKRGRKKLLYIFKQPFMRPVQTTQEEDGCSCRFPEEEEGGCELRVKFSRSADAPAYKQGQNQLYNELNLGRREEYDVLDKRRGRDPEMGGKPRRKNPQEGLYNELQKDKMAEAYSEIGMKGERRRGKGHDGLYQGLSTATKDTYDALHMQALPPR
notes: The sheet names the CD70-knockout T cells that carry CD70-CAR-5H; also called CD70-CAR-5H
As for B8, the “POS (% of cells in the CD70-PE positive gate)” value stood at 58.9%.

B9: CD70KO-CAR-L1 (receptor)
chimeric antigen receptor chain: EVQVVESGGGLVQAGGSLRLSCAASGRTFSSYAMGWVRQAPGKDQEFVAAINWSDGSTYYADSVKGRFTIARDNAKNTAFLQMNSLKPEDTAVYYCAAGCCGVADAPLNALDAWGQGTLVTVSSTTTPAPRPPTPAPTIASQPLSLRPEACRPAAGGAVHTRGLDFACDIYIWAPLAGTCGVLLLSLVITLYCKRGRKKLLYIFKQPFMRPVQTTQEEDGCSCRFPEEEEGGCELRVKFSRSADAPAYKQGQNQLYNELNLGRREEYDVLDKRRGRDPEMGGKPRRKNPQEGLYNELQKDKMAEAYSEIGMKGERRRGKGHDGLYQGLSTATKDTYDALHMQALPPR
notes: The sheet names the CD70-knockout T cells that carry CD70-CAR-L1; also called CD70-CAR-L1
B9: the “POS (% of cells in the CD70-PE positive gate)” value is 82.5%.
